# Laboratory results reported in patent US20230340112A1.
# How the values were obtained:
# [1] = biological target: human SIRPα expressed on the surface of human monocyte-derived dendritic cells (human) (UniProt P78324); assay: flow cytometry on human monocyte-derived dendritic cells
# [2] = biological target: cell-surface SIRPα (mDC) (human) (UniProt P78324); assay: FACS blocking of CD47/SIRPα; Donor #298; isotype control, flat curve
# [3] = biological target: cell-surface SIRPα (mDC) (human) (UniProt P78324); assay: FACS blocking of CD47/SIRPα; Donor #296; isotype control, flat curve
# [4] = biological target: mDC cell surface SIRPα (human) (UniProt P78324); assay: FACS binding; Donor #298; isotype control, flat curve
# [5] = biological target: mDC cell surface SIRPα (human) (UniProt P78324); assay: FACS binding; Donor #296; isotype control, flat curve
# Chain of mDC cell surface SIRPα (human) (P78324 31-504): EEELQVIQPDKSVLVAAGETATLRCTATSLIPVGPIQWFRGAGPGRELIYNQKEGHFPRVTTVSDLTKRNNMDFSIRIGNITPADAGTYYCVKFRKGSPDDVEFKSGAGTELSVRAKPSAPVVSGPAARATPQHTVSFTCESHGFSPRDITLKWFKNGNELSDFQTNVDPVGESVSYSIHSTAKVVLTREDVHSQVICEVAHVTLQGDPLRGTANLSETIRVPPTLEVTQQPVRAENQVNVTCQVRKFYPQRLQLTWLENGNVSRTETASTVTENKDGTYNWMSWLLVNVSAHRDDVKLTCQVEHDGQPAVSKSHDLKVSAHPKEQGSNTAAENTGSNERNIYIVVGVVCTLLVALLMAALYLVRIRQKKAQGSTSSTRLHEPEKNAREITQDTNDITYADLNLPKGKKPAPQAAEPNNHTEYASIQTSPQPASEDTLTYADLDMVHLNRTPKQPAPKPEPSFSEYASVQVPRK
# Chain of cell-surface SIRPα (mDC) (human) (P78324 31-504): as above
# Chain of human SIRPα expressed on the surface of human monocyte-derived dendritic cells (human) (P78324 31-504): as above
Substance,Kd [1] [pM],IC50 [2] [pM],IC50 [3] [pM],EC50 [4] [pM],EC50 [5] [pM]
IgG4 isotype (antibody),2.1,,,,
IgG4 isotype,,17.7,424,25,38600
